Data as given in IntAct's records for PubMed 28712572.

Target: gbrap_human GABARAP (UniProt O95166)
Sequence (O95166 whole entry): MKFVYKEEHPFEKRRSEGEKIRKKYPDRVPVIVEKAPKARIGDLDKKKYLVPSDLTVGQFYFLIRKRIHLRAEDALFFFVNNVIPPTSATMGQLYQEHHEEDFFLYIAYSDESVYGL

effect of a mutation on the interaction	Substance
with no effect	Pericentriolar material 1 protein (Homo sapiens), Q15154 K1957A
with no effect	Pericentriolar material 1 protein (Homo sapiens), Q15154 K1957D
with no effect	Pericentriolar material 1 protein (Homo sapiens), Q15154 K1957I
with no effect	Pericentriolar material 1 protein (Homo sapiens), Q15154 K1957Q
with no effect	Pericentriolar material 1 protein (Homo sapiens), Q15154 K1957V
with no effect	Pericentriolar material 1 protein (Homo sapiens), Q15154 K1957W
with no effect	Pericentriolar material 1 protein (Homo sapiens), Q15154 K1957Y
with no effect	Pericentriolar material 1 protein (Homo sapiens), Q15154 K1965C
with no effect	Pericentriolar material 1 protein (Homo sapiens), Q15154 K1965D
with no effect	Pericentriolar material 1 protein (Homo sapiens), Q15154 K1965I
with no effect	Pericentriolar material 1 protein (Homo sapiens), Q15154 K1965L
with no effect	Pericentriolar material 1 protein (Homo sapiens), Q15154 K1965Q
with no effect	Pericentriolar material 1 protein (Homo sapiens), Q15154 K1965R
with no effect	Pericentriolar material 1 protein (Homo sapiens), Q15154 K1965S
with no effect	Pericentriolar material 1 protein (Homo sapiens), Q15154 K1965V
with no effect	Pericentriolar material 1 protein (Homo sapiens), Q15154 K1965Y
with no effect	Pericentriolar material 1 protein (Homo sapiens), Q15154 K1972E
with no effect	Pericentriolar material 1 protein (Homo sapiens), Q15154 K1972F
with no effect	Pericentriolar material 1 protein (Homo sapiens), Q15154 K1972H
with no effect	Pericentriolar material 1 protein (Homo sapiens), Q15154 K1972L
with no effect	Pericentriolar material 1 protein (Homo sapiens), Q15154 K1972M

The next lines start with the substance.

Substance	effect of a mutation on the interaction
Pericentriolar material 1 protein (Homo sapiens), Q15154 I1975W	with no effect
Pericentriolar material 1 protein (Homo sapiens), Q15154 I1975Y	with no effect
Pericentriolar material 1 protein (Homo sapiens), Q15154 K1957C	with no effect
Pericentriolar material 1 protein (Homo sapiens), Q15154 K1957E	with no effect
Pericentriolar material 1 protein (Homo sapiens), Q15154 K1957F	with no effect
Pericentriolar material 1 protein (Homo sapiens), Q15154 K1957G	with no effect
Pericentriolar material 1 protein (Homo sapiens), Q15154 K1957H	with no effect
Pericentriolar material 1 protein (Homo sapiens), Q15154 K1957L	with no effect
Pericentriolar material 1 protein (Homo sapiens), Q15154 K1957M	with no effect
Pericentriolar material 1 protein (Homo sapiens), Q15154 K1957N	with no effect
Pericentriolar material 1 protein (Homo sapiens), Q15154 K1957P	with no effect
Pericentriolar material 1 protein (Homo sapiens), Q15154 K1957R	with no effect
Pericentriolar material 1 protein (Homo sapiens), Q15154 K1957S	with no effect
Pericentriolar material 1 protein (Homo sapiens), Q15154 K1957T	with no effect
Pericentriolar material 1 protein (Homo sapiens), Q15154 K1965A	with no effect
Pericentriolar material 1 protein (Homo sapiens), Q15154 K1965E	with no effect
Pericentriolar material 1 protein (Homo sapiens), Q15154 K1965F	with no effect
Pericentriolar material 1 protein (Homo sapiens), Q15154 K1965G	disrupting interaction strength
Pericentriolar material 1 protein (Homo sapiens), Q15154 K1965H	with no effect
Pericentriolar material 1 protein (Homo sapiens), Q15154 K1965M	with no effect
Pericentriolar material 1 protein (Homo sapiens), Q15154 K1965N	with no effect
Pericentriolar material 1 protein (Homo sapiens), Q15154 K1965P	disrupting interaction strength
Pericentriolar material 1 protein (Homo sapiens), Q15154 K1965T	with no effect
Pericentriolar material 1 protein (Homo sapiens), Q15154 K1965W	with no effect
Pericentriolar material 1 protein (Homo sapiens), Q15154 K1972A	with no effect
Pericentriolar material 1 protein (Homo sapiens), Q15154 K1972C	with no effect
Pericentriolar material 1 protein (Homo sapiens), Q15154 K1972D	with no effect
Pericentriolar material 1 protein (Homo sapiens), Q15154 K1972G	with no effect
Pericentriolar material 1 protein (Homo sapiens), Q15154 K1972I	with no effect
